Where no end group is shown, it is not given here.
Assays:
Details in all cases: both partners purified
[1] = target: T1, ZZZ3 ZZ domain (aa 816–874) (human, UniProt Q8IYH5 816-874); assay: NMR structure; solution structure; 2 mM 13C/15N-labeled ZZZ3 (816–874) with 10 mM H3 (1–12) or 4 mM H3K4ac (1–8); 298 K; 20 mM Tris–HCl pH 7.0, 100 mM NaCl, 5 mM DTT
T1 construct: 13C/15N isotope-labelled sample for the NMR structures
T1 sequence (looked up): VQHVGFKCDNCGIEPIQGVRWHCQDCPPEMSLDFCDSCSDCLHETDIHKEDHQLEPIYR

[2] = target: T2, ZZZ3 ZZ domain (aa 800–903), GST cleaved (human, UniProt Q8IYH5 800-903); assay: MST; displacement assay: unlabeled peptide added to a preformed complex of 5 μM ZZ (aa 800–903) and 80 nM C-terminal fluorescein-labeled H3 (1–12); 20 mM Tris–HCl pH 7.0, 150 mM NaCl, 3 mM DTT
T2 construct: ZZ domain of human ZZZ3, aa 800–903; also called WT ZZZ3 ZZ; source: E. coli BL21 (DE3) RIL, purified (glutathione Sepharose, PreScission cleavage, size-exclusion chromatography)
T2 sequence (looked up): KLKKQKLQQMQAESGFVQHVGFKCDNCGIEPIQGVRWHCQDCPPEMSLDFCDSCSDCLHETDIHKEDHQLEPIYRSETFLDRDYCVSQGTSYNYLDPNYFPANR

[3] = target: T3, GST-ZZZ3 ZZ domain (amino acids 800–903) (human, UniProt Q8IYH5 800-903); assay: pull-down; peptide pulldown: 1 µg biotinylated histone peptide with 1–2 µg GST-fused protein in 50 mM Tris–HCl 7.5, 300 mM NaCl, 0.1% NP-40, overnight; streptavidin beads; western blot
T3 construct: ZZ-type zinc finger domain of human ZZZ3, amino acids 800–903, in pGEX-6P1; also called GST-fused ZZZ3 ZZ; source: E. coli BL21 (DE3) RIL, purified (glutathione Sepharose 4B)
T3 sequence (looked up): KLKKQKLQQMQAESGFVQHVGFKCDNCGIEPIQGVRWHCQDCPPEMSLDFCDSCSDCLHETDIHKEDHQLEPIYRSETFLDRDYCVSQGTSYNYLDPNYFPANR

B1: unmodified histone H3 tail peptide (aa 1–12) (peptide, UniProt P68431 2-13, looked up)
peptide: ARTKQTARKSTG
notes: histone H3, aa 1–12; also called H3 (1–12); H3 peptide; source: synthetic peptide
B1: binds [1]; binds [2].

B2: H3K4ac peptide (aa 1–8) (peptide, UniProt P68431 2-9, looked up)
peptide: ARTK(Ac)QTAR
notes: histone H3, aa 1–8; also called H3K4ac (1–8); source: synthetic peptide
B2: binds [1].

B3: H3K4ac (1–12) peptide, unlabeled (peptide, UniProt P68431 2-13, looked up)
peptide: ARTK(Ac)QTARKSTG
notes: histone H3, aa 1–12; source: synthetic peptide
For B3, the “fold enhancement of binding over the unmodified H3 peptide” value [2] was 3 fold.

B4: histone H3 peptide of the N-terminal eight amino acids, biotinylated (peptide, UniProt P68431 2-9, looked up)
peptide: ARTKQTAR
modifications: also: biotinylated, position not given here
notes: histone H3, N-terminal eight amino acids; also called The N-terminal eight amino acids of H3; source: synthetic peptide (CPC and Scilight Biotechnology)
B4: binds [3].
